The record followed here is patent US20130177979A1, “METHODS AND COMPOSITIONS FOR CELL PERMEABLE STAT3 INHIBITOR” (University of Central Florida Research Foundation, Inc., priority 2010, published 2013).

In one test the target is T1, PEpYINQS (pY1068EGFR) (Homo sapiens, UniProt P00533).
T1 construct: the pY1068 of EGFR, PEpYINQS
Briefly: SPR binding to EGFR pY1068 peptide PEpYINQS. The settings on record: immobilized on sensor chip, PEpYINQS as analyte. (SPR reads the build-up and loss of mass on a sensor chip optically.)

Another test deals with T2, GpYIKTE (pY701Stat1) (Homo sapiens, UniProt P42224).
T2 construct: the Stat1 pY701 peptide, GpYIKTE
The test can be described thus: SPR binding to Stat1 pY701 peptide GpYIKTE. The conditions noted are these: immobilized on sensor chip, GpYIKTE as analyte.

The next test addresses T3, PpYLKTK (pY705 Stat3) (Homo sapiens, UniProt P40763).
T3 construct: the Stat3-derived pTyr705 peptide, PpYLKTK
Briefly: SPR binding to Stat3-derived pTyr705 peptide PpYLKTK. The conditions noted are these: immobilized on sensor chip, PpYLKTK as analyte.

The target of another test is GpYLPQTV (IL-6R/gp130) (Homo sapiens, UniProt P40189, S904G). The settings on record: SPR; SPI, Stat3 SH2 domain or Stat3 immobilized on sensor chip, GpYLPQTV as analyte.
The next test addresses T4, PVpYHNQP (pY1086EGFR) (Homo sapiens, UniProt P00533).
T4 construct: the pY1086 peptide of EGFR, PVpYHNQP
Briefly: SPR binding to EGFR pY1086 peptide PVpYHNQP. The settings on record: immobilized on sensor chip, PVpYHNQP as analyte.

A further test addresses T5, GpYVKPQ (pY694Stat5) (Homo sapiens, UniProt P42229).
T5 construct: the pTyr peptide of Stat5, GpYVKPQ
Briefly: SPR binding to Stat5 pTyr peptide GpYVKPQ. The settings on record: immobilized on sensor chip, GpYVKPQ as analyte.

Procedure for GpYIKTE (pY701Stat1): (§1) Association and dissociation measurements were taken and the affinities were determined using Qdat software.
(§2) Surface plasmon resonance analysis. […] Various concentrations of pTyr peptides (analyte) in running buffer (1×PBS, 0.5% DMSO) were passed over the sensor chip to produce response signals. The response signals were referenced by subtracting the response generated by passing across a surface without the analytes. The association and dissociation rate constants were calculated using the Qdat software. The ratio of the association and dissociation rate constants was determined as the affinity (KD).
Procedure for GpYLPQTV (IL-6R/gp130): as §1, §2
Procedure for GpYVKPQ (pY694Stat5): as §1, §2
Procedure for PEpYINQS (pY1068EGFR): as §1, §2
Procedure for PVpYHNQP (pY1086EGFR): as §1, §2
Procedure for PpYLKTK (pY705 Stat3): as §1, §2

For orientation: Kd means the concentration at which binding is half-saturated. On to “Stat3 SH2 domain: Purified His-tagged Stat3 SH2 domain, recombinant protein expressed in BL21(DE3) cells (FISKERERAILSTKPPGTFLLRFSESSK)”, for which the Kd turned out to be 0.4 µM in the test with PEpYINQS (pY1068EGFR); 6.6 µM with GpYIKTE (pY701Stat1); 1.6 µM in the test with PpYLKTK (pY705 Stat3); 0.03 µM with GpYLPQTV (IL-6R/gp130); 2.6 µM with PVpYHNQP (pY1086EGFR); 5200 µM with GpYVKPQ (pY694Stat5).
For the substance “full-length Stat3: Purified His-tagged Stat3 protein, recombinant, expressed in BL21(DE3) cells”, the equilibrium dissociation constant (Kd) is 4.4 µM in the test with GpYIKTE (pY701Stat1), 0.9 µM in the test with PpYLKTK (pY705 Stat3), 0.02 µM with GpYLPQTV (IL-6R/gp130) and 1200 µM with GpYVKPQ (pY694Stat5).
